Reference: patent publication US20110135647

System: T1, pp1-18 peptide (cell-permeable peptide, RRRRRRRRRRR-G-MEGISNFKTPSKLSEKKK)
T1 sequence: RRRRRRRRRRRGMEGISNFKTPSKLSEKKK

Substance: CDK1-cyclin B1 recombinant protein complex (New England Biolabs)
- phosphorylation of recombinant PBK/TOPK by CDK1-cyclin B1 (in vitro kinase assay with peptide added): the phosphorylation of recombinant PBK/TOPK protein by CDK1-cyclin B1 recombinant proteins was diminished in dose-dependent manner by addition of the pp 1-18 peptide
